The supplement of paper PMC9233669
This sample holds only a part of the variants without activity.

Experiments:
[1] = system: biotinyl-Leu-oxazolone; assay: self-aminoacylation, catalytic enhancement (BLO) (fold over background); higher = more active; k-Seq, kA / k0A0; sequences stand for … in GGGAAUGGAUCCACAUCUACGAAUUC…UUCACUGCAGACUUGACGAAGCUG
Method in brief: (§1)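 Mutagenized RNA pools with a 21-nt variable region (0.43 μM) reacted with each biotinyl-aminoacyl-oxazolone at 2–1250 μM. Reactions ran in 50 μL HEPES/NaCl/KCl/MgCl2/CaCl2 buffer with 5% acetonitrile, pH 6.9–7.0, for 90 minutes at room temperature. Streptavidin-captured RNA was quantified by triplicate qPCR and Illumina sequencing, and per-sequence fraction reacted was fit to a pseudo-first-order model with 1000 bootstraps. Catalytic enhancement is median kA divided by the uncatalyzed rate, the low-activity peak of a bimodal Gaussian fit.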

[2] = system: biotinyl-Val-oxazolone; assay: self-aminoacylation, catalytic enhancement (BVO) (fold over background); higher = more active; k-Seq, kA / k0A0; sequences stand for … in GGGAAUGGAUCCACAUCUACGAAUUC…UUCACUGCAGACUUGACGAAGCUG
Method in brief: as §1

[3] = system: biotinyl-Ile-oxazolone; assay: self-aminoacylation, catalytic enhancement (BIO) (fold over background); higher = more active; k-Seq, kA / k0A0; sequences stand for … in GGGAAUGGAUCCACAUCUACGAAUUC…UUCACUGCAGACUUGACGAAGCUG
Method in brief: as §1

[4] = system: biotinyl-Phe-oxazolone; assay: self-aminoacylation, catalytic enhancement (BFO) (fold over background); higher = more active; k-Seq, kA / k0A0; sequences stand for … in GGGAAUGGAUCCACAUCUACGAAUUC…UUCACUGCAGACUUGACGAAGCUG
Method in brief: as §1

[5] = system: biotinyl-Trp-oxazolone; assay: self-aminoacylation, catalytic enhancement (BWO) (fold over background); higher = more active; k-Seq, kA / k0A0; sequences stand for … in GGGAAUGGAUCCACAUCUACGAAUUC…UUCACUGCAGACUUGACGAAGCUG
Method in brief: as §1

[6] = system: biotinyl-Met-oxazolone; assay: self-aminoacylation, catalytic enhancement (BMO) (fold over background); higher = more active; k-Seq, kA / k0A0; sequences stand for … in GGGAAUGGAUCCACAUCUACGAAUUC…UUCACUGCAGACUUGACGAAGCUG
Method in brief: as §1

“AUUCACCUAGCUCACCGGGUG [Fam2.2 aminoacylation ribozyme variant]” was tested, and the self-aminoacylation [1] was 2.64, the self-aminoacylation [2] was 2.52 and the self-aminoacylation [3] was 2.15. For the same sequence, the self-aminoacylation [4] was 16.7, the self-aminoacylation [5] was 2.11 and the self-aminoacylation [6] was 3.66.

“AUUCACCUAGCUCAUCGGGCG [Fam2.2 aminoacylation ribozyme variant]” showed a self-aminoacylation [1] of 2.33, a self-aminoacylation [2] of 2.57 and a self-aminoacylation [3] of 2.26. For the same sequence, the self-aminoacylation [4] was 11.7, the self-aminoacylation [5] was 1.8 and the self-aminoacylation [6] was 2.3.

For “AUUCACCUAGCUCAUGGGGUG [Fam2.2 aminoacylation ribozyme variant]”, the self-aminoacylation [1] was 5.64, the self-aminoacylation [2] was 2.8 and the self-aminoacylation [3] was 2.97. The self-aminoacylation [4] was 32.8, the self-aminoacylation [5] was 4.56 and the self-aminoacylation [6] was 5.15.

For “AUUCACCUAGGACAUAGGGUG [Fam2.2 aminoacylation ribozyme variant]”, the self-aminoacylation [1] was 4.7, the self-aminoacylation [2] was 2.01 and the self-aminoacylation [3] was 2.06. The self-aminoacylation [4] was 18.6, the self-aminoacylation [5] was 3.23 and the self-aminoacylation [6] was 3.54.

Sequence “AUUCACCUAGGACAUCGAGUG [Fam2.2 aminoacylation ribozyme variant]” has a self-aminoacylation [1] of 1.81, a self-aminoacylation [2] of 1.12 and a self-aminoacylation [3] of 1.02. It also gave a self-aminoacylation [4] of 2.04, a self-aminoacylation [5] of 1.89 and a self-aminoacylation [6] of 1.52.

“AUUCACCUAGGACAUCGGGAG [Fam2.2 aminoacylation ribozyme variant]” was tested, and the self-aminoacylation [1] was 1.03, the self-aminoacylation [2] was 0.991 and the self-aminoacylation [3] was 1.02. The self-aminoacylation [4] was 0.29, the self-aminoacylation [5] was 0.92 and the self-aminoacylation [6] was 1.08.

Sequence “AUUCACCUAGGACAUCGGGUC [Fam2.2 aminoacylation ribozyme variant]” has a self-aminoacylation [1] of 1.42, a self-aminoacylation [2] of 1.25 and a self-aminoacylation [3] of 1.22. The self-aminoacylation [4] was 0.549, the self-aminoacylation [5] was 0.858 and the self-aminoacylation [6] was 0.87.

“AUUCACCUAGGACUUCGGGUG [Fam2.2 aminoacylation ribozyme variant]” was tested, and the self-aminoacylation [1] was 3.6, the self-aminoacylation [2] was 2.43 and the self-aminoacylation [3] was 2.5. For the same sequence, the self-aminoacylation [4] was 19.1, the self-aminoacylation [5] was 3.48 and the self-aminoacylation [6] was 2.75.

With “AUUCACCUAGGAUAUCGGGUG [Fam2.2 aminoacylation ribozyme variant]” the self-aminoacylation [1] was 7.35, the self-aminoacylation [2] was 3.64 and the self-aminoacylation [3] was 3.31. It also gave a self-aminoacylation [4] of 44.1, a self-aminoacylation [5] of 5.47 and a self-aminoacylation [6] of 6.65.

“AUUCACCUAGGCAAUCGGGUG [Fam2.2 aminoacylation ribozyme variant]” was tested, and the self-aminoacylation [1] was 4.75, the self-aminoacylation [2] was 2.98 and the self-aminoacylation [3] was 2.52. For the same sequence, the self-aminoacylation [4] was 35.4, the self-aminoacylation [5] was 3.92 and the self-aminoacylation [6] was 3.95.

Sequence “AUUCACCUAGGCCAUCGGGUU [Fam2.2 aminoacylation ribozyme variant]” has a self-aminoacylation [1] of 1.03, a self-aminoacylation [2] of 1.31 and a self-aminoacylation [3] of 1.34. For the same sequence, the self-aminoacylation [4] was 5.49, the self-aminoacylation [5] was 0.76 and the self-aminoacylation [6] was 1.52.

“AUUCACCUAGGCCGUCGGGUG [Fam2.2 aminoacylation ribozyme variant]” was tested, and the self-aminoacylation [1] was 2.74, the self-aminoacylation [2] was 2.3 and the self-aminoacylation [3] was 1.87. The self-aminoacylation [4] was 17.1, the self-aminoacylation [5] was 2.11 and the self-aminoacylation [6] was 1.94.

“AUUCACCUAGGGCAACGGGUG [Fam2.2 aminoacylation ribozyme variant]” gave a self-aminoacylation [1] of 4.08, a self-aminoacylation [2] of 2.5 and a self-aminoacylation [3] of 2.59. The self-aminoacylation [4] was 22.8, the self-aminoacylation [5] was 2.92 and the self-aminoacylation [6] was 2.81.

“AUUCACCUAGGGCAUCAGGUG [Fam2.2 aminoacylation ribozyme variant]” showed a self-aminoacylation [1] of 1.7, a self-aminoacylation [2] of 1.46 and a self-aminoacylation [3] of 1.35. The self-aminoacylation [4] was 1.46, the self-aminoacylation [5] was 1.55 and the self-aminoacylation [6] was 1.6.

“AUUCACCUAGGGCAUCGCGUG [Fam2.2 aminoacylation ribozyme variant]” showed a self-aminoacylation [1] of 2.92, a self-aminoacylation [2] of 3.89 and a self-aminoacylation [3] of 3.12. For the same sequence, the self-aminoacylation [4] was 26.7, the self-aminoacylation [5] was 2.95 and the self-aminoacylation [6] was 3.5.

Work on “AUUCACCUAGGGCAUCGGGUG [Fam2.2 aminoacylation ribozyme variant]” yielded a self-aminoacylation [1] of 4.05, a self-aminoacylation [2] of 3 and a self-aminoacylation [3] of 2.78. It also gave a self-aminoacylation [4] of 20.3, a self-aminoacylation [5] of 3.4 and a self-aminoacylation [6] of 3.55.

Work on “AUUCACCUAGGGCAUCUGGUG [Fam2.2 aminoacylation ribozyme variant]” yielded a self-aminoacylation [1] of 3.23, a self-aminoacylation [2] of 2.33 and a self-aminoacylation [3] of 2.11. The self-aminoacylation [4] was 13, the self-aminoacylation [5] was 2.64 and the self-aminoacylation [6] was 2.63.

“AUUCACCUAGGGCAUUGGGUG [Fam2.2 aminoacylation ribozyme variant]” showed a self-aminoacylation [1] of 8.05, a self-aminoacylation [2] of 3.49 and a self-aminoacylation [3] of 3.74. The self-aminoacylation [4] was 42.8, the self-aminoacylation [5] was 6.12 and the self-aminoacylation [6] was 6.54.

Sequence “AUUCACCUAGGUAAGCGGGUG [Fam2.2 aminoacylation ribozyme variant]” has a self-aminoacylation [1] of 2.75, a self-aminoacylation [2] of 1.48 and a self-aminoacylation [3] of 1.9. For the same sequence, the self-aminoacylation [4] was 14.3, the self-aminoacylation [5] was 2.31 and the self-aminoacylation [6] was 2.73.

“AUUCACCUAGGUAAUCAGGUG [Fam2.2 aminoacylation ribozyme variant]” gave a self-aminoacylation [1] of 1.31, a self-aminoacylation [2] of 0.989 and a self-aminoacylation [3] of 0.967. For the same sequence, the self-aminoacylation [4] was 1.21, the self-aminoacylation [5] was 0.933 and the self-aminoacylation [6] was 1.25.

Work on “AUUCACCUAGGUAAUCCGGUG [Fam2.2 aminoacylation ribozyme variant]” yielded a self-aminoacylation [1] of 4.57, a self-aminoacylation [2] of 2.39 and a self-aminoacylation [3] of 2.33. The self-aminoacylation [4] was 30.4, the self-aminoacylation [5] was 4.8 and the self-aminoacylation [6] was 3.77.

“AUUCACCUAGGUAAUCGGGUC [Fam2.2 aminoacylation ribozyme variant]” gave a self-aminoacylation [1] of 0.754, a self-aminoacylation [2] of 0.689 and a self-aminoacylation [3] of 0.866. The self-aminoacylation [4] was 0.508, the self-aminoacylation [5] was 0.691 and the self-aminoacylation [6] was 0.606.

For “AUUCACCUAGGUACUCGGGUG [Fam2.2 aminoacylation ribozyme variant]”, the self-aminoacylation [1] was 3.3, the self-aminoacylation [2] was 2.11 and the self-aminoacylation [3] was 2.15. The self-aminoacylation [4] was 29.8, the self-aminoacylation [5] was 2.78 and the self-aminoacylation [6] was 2.47.

Work on “AUUCACCUAGGUCAACAGGUG [Fam2.2 aminoacylation ribozyme variant]” yielded a self-aminoacylation [1] of 2.8, a self-aminoacylation [2] of 1.56 and a self-aminoacylation [3] of 1.64. For the same sequence, the self-aminoacylation [4] was 5.63, the self-aminoacylation [5] was 1.87 and the self-aminoacylation [6] was 2.2.

Sequence “AUUCACCUAGGUCACCCGGUG [Fam2.2 aminoacylation ribozyme variant]” has a self-aminoacylation [1] of 9.93, a self-aminoacylation [2] of 7.55 and a self-aminoacylation [3] of 9.3. It also gave a self-aminoacylation [4] of 37.3, a self-aminoacylation [5] of 5.82 and a self-aminoacylation [6] of 7.32.
